Data from paper PMC3894988, “Human Variants in the Neuronal Basic Helix-Loop-Helix/Per-Arnt-Sim (bHLH/PAS) Transcription Factor Complex NPAS4/ARNT2 Disrupt Function” (PLoS ONE, 2014).

Columns and labels:
[1] = molecular target: endogenous ARNT2 (HEK293T) (human (endogenous in HEK293T)) (UniProt Q9HBZ2)
[2] = molecular target: ARNT2, overexpressed (human Aryl hydrocarbon Receptor Nuclear Translator 2) (human, UniProt Q9HBZ2 1-717); test: cell-based or functional assay
Chain of ARNT2, overexpressed (human Aryl hydrocarbon Receptor Nuclear Translator 2) (Q9HBZ2 whole entry): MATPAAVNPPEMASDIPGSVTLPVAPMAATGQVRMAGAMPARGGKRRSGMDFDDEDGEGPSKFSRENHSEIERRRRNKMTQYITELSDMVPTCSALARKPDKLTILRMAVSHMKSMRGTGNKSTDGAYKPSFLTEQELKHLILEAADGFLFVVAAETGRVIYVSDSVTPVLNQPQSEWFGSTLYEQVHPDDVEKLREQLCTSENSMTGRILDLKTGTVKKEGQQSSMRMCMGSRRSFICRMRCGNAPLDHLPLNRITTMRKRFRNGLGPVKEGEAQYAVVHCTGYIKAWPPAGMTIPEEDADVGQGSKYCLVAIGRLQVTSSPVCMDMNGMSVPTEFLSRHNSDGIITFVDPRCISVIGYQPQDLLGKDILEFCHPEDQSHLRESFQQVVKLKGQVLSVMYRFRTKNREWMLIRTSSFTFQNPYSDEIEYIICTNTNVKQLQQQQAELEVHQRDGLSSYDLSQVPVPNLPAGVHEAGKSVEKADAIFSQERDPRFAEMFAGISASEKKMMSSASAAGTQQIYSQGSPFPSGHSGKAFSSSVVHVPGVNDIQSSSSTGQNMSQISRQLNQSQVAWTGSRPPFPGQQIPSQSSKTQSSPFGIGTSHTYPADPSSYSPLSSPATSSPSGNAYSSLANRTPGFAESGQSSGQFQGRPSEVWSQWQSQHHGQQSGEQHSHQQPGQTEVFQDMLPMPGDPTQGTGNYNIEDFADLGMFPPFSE

Chain of endogenous ARNT2 (HEK293T) (human (endogenous in HEK293T)) (Q9HBZ2 whole entry): as above

Row | induction of BDNF exon I mRNA in 293TREX cells (quantitative real-time PCR), reduction against WT NPAS4 [1] [%] | activity on the 6xCME-Luc luciferase reporter gene in HEK293T cells, percent of WT NPAS4 [2] | Binder
1 | 90 | – | NPAS4.F147S-mycFlag (natural protein) MYRSTKGASKARRDQINAEIRNLKELLPLAEADKVRLSYLHIMSLACIYTRKGVFFAGGTPLAGPTGLLSAQELEDIVAALPGFLLVFTAEGKLLYLSESVSEHLGHSMVDLVAQGDSIYDIIDPADHLTVRQQLTLPSALDTDRLSRCRFNTSKSLRRQSAGNKLVLIRGRFHAHPPGAYWAGNPVFTAFCAPLEPRPRPGPGPGPGPASLFLAMFQSRHAKDLALLDISESVLIYLGFERSELLCKSWYGLLHPEDLAHASAQHYRLLAESGDIQAEMVVRLQAKTGGWAWIYCLLYSEGPEGPITANNYPISDMEAWSLRQQLNSEDTQAAYVLGTPTMLPSFPENILSQEECSSTNPLFTAALGAPRSTSFPSAPELSVVSASEELPRPSKELDFSYLTFPSGPEPSLQAELSKDLVCTPPYTPHQPGGCAFLFSLHEPFQTHLPTPSSTLQEQLTPSTATFSDQLTPSSATFPDPLTSPLQGQLTETSVRSYEDQLTPCTSTFPDQLLPSTATFPEPLGSPAHEQLTPPSTAFQAHLDSPSQTFPEQLSPNPTKTYFAQEGCSFLYEKLPPSPSSPGNGDCTLLALAQLRGPLSVDVPLVPEGLLTPEASPVKQSFFHYSEKEQNEIDRLIQQISQLAQGMDRPFSAEAGTGGLEPLGGLEPLDSNLSLSGAGPPVLSLDLKPWKCQELDFLADPDNMFLEETPVEDIFMDLSTPDPSEEWGSGDPEAEGPGGAPSPCNNLSPEDHSFLEDLATYETAFETGVSAFPYDGFTDELHQLQSQVQDSFHEDGSGGEPTF
2 | – | ~65 % of wt | NPAS4.F147A-mycFlag (natural protein, human, UniProt Q8IUM7 1-802, looked up) MYRSTKGASKARRDQINAEIRNLKELLPLAEADKVRLSYLHIMSLACIYTRKGVFFAGGTPLAGPTGLLSAQELEDIVAALPGFLLVFTAEGKLLYLSESVSEHLGHSMVDLVAQGDSIYDIIDPADHLTVRQQLTLPSALDTDRLARCRFNTSKSLRRQSAGNKLVLIRGRFHAHPPGAYWAGNPVFTAFCAPLEPRPRPGPGPGPGPASLFLAMFQSRHAKDLALLDISESVLIYLGFERSELLCKSWYGLLHPEDLAHASAQHYRLLAESGDIQAEMVVRLQAKTGGWAWIYCLLYSEGPEGPITANNYPISDMEAWSLRQQLNSEDTQAAYVLGTPTMLPSFPENILSQEECSSTNPLFTAALGAPRSTSFPSAPELSVVSASEELPRPSKELDFSYLTFPSGPEPSLQAELSKDLVCTPPYTPHQPGGCAFLFSLHEPFQTHLPTPSSTLQEQLTPSTATFSDQLTPSSATFPDPLTSPLQGQLTETSVRSYEDQLTPCTSTFPDQLLPSTATFPEPLGSPAHEQLTPPSTAFQAHLDSPSQTFPEQLSPNPTKTYFAQEGCSFLYEKLPPSPSSPGNGDCTLLALAQLRGPLSVDVPLVPEGLLTPEASPVKQSFFHYSEKEQNEIDRLIQQISQLAQGMDRPFSAEAGTGGLEPLGGLEPLDSNLSLSGAGPPVLSLDLKPWKCQELDFLADPDNMFLEETPVEDIFMDLSTPDPSEEWGSGDPEAEGPGGAPSPCNNLSPEDHSFLEDLATYETAFETGVSAFPYDGFTDELHQLQSQVQDSFHEDGSGGEPTF
